As usually defined, the IC50 is the concentration at which inhibition is half-maximal. As a reminder, the EC50 is the concentration at which the effect is half-maximal. Broadly, the Kd is the constant that tells how readily two partners part at equilibrium. Low values mean higher affinity, high ones lower affinity.

For three substances, IC50, EC50 and Kd results are on record in US20260250363A1.

Where two headings read alike, the source gives them in different places.

Test [1] has as its target Recombinant SARS-CoV-2 BA.2 Spike (GCN4-IZ) His Protein, CF (R&D, 11109-CV) (SARS-CoV-2) (UniProt P0DTC2). Put plainly: competition ELISA: blocks biotin-ACE2 binding to coated spike.
The target in test [2] is SARS-CoV-2 B.1.1.529 Spike Protein (Omicron) (SARS-CoV-2) (UniProt P0DTC2). The test is described as above.
Test [3] has as its target SARS-CoV-2 Spike Trimer, His Tag (BA.4/Omicron) (MALS verified) (AcroBiosystems, SPN-C5229) (SARS-CoV-2) (UniProt P0DTC2). Described as above.
For test [4], the target named is SARS-CoV-2 Spike Trimer, His Tag (BA.5/Omicron) (MALS verified) (AcroBiosystems, SPN-C522e) (SARS-CoV-2) (UniProt P0DTC2). The description is as above.
In test [5] the target is SARS-CoV-2 B.1.617.2 Spike Protein (R&D, Cat. #10878-CV) (SARS-CoV-2) (UniProt P0DTC2). The test is described as follows: direct ELISA on coated spike. (An ELISA detects its analyte on a solid surface through an enzyme-linked reagent.)
Test [6] has as its target SARS-CoV-2 B.1.1.529 Spike Protein (Omicron) (SARS-CoV-2) (UniProt P0DTC2). Put plainly: BLI (ForteBio), mAb on AHC sensor, spike in solution. On the technique in general: Biolayer interferometry detects binding as a change in optical thickness at a sensor tip.
Test [7] deals with SARS-CoV-2 B.1.617.2 Spike Protein (R&D, Cat. #10878-CV) (SARS-CoV-2) (UniProt P0DTC2). The description is as above.
Test [8] has the same target. The test is described as follows: competition ELISA: blocks biotin-ACE2 binding to coated spike.
Test [9] has the same target. Described as above. The source holds these as a separate data set.

For Bebtelovimab (antibody), the IC50 in test [1] came out at 3.08 nM; in test [2], 6.73 nM; in test [3] it was 4.07 nM; in test [4], 3.46 nM.

Casirivimab (antibody): the half-maximal effective concentration (EC50) in [5] was 0.0399 nM. The Kd in test [6] was 7.82 nM; in [7], 0.484 nM. For the same substance, the 50% inhibitory concentration (IC50) in [8] came out at 0.956 nM; in test [9] it was 1.1 nM.

On to Imdevimab (antibody), for which, in [5], the EC50 was 0.0671 nM. Besides, the Kd in test [6] is 456 nM; in test [7] it was 1.53 nM.
